Source: US20250195677A1

Target: recombinant His-tagged cynomolgus PD-1 (Acro Biosystems) (cynomolgus) (UniProt B0LAJ3)
Test: SPR Carterra LSA, antibody coupled

Sequence of recombinant His-tagged cynomolgus PD-1 (Acro Biosystems) (cynomolgus) (B0LAJ3 entry or part of it limits assumed): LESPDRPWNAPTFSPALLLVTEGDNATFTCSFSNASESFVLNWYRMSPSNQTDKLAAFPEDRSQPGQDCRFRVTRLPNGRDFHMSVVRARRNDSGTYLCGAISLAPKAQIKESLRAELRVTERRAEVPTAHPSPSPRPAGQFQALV

Kd [nM] | Substance
0.575 | KEYTRUDA® (pembrolizumab) (antibody)
6.4 | OPDIVO® (nivolumab) (antibody)
